Measurements: patent US20220396612A1 (UNIVERSIT DE TOURS, published 2022)

T1: virus-like particles (VLPs) of BK polyomavirus VP-1 protein, serotype Ia (BK virus (BKPyV), serotype Ia, UniProt P03088 1-361)
T1 construct: self-assembled native VLPs coated on ELISA plates; also called VLP Ia; BKV VP-1, serotype Ia
T1 chain: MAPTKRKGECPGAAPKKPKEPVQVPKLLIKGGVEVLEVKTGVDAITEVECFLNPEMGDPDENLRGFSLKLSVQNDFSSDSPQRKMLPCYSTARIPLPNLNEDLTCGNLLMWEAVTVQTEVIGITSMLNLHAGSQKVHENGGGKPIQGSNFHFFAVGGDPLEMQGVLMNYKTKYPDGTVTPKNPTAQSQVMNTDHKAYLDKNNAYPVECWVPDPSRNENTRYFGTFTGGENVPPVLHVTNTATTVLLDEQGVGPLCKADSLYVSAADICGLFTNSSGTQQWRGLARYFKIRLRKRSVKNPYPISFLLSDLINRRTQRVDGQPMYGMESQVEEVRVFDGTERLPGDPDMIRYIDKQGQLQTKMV

T2: virus-like particles (VLPs) of BK polyomavirus VP-1 protein, serotype Ib2 (BK virus (BKPyV), serotype Ib2, PA …, UniProt P03088 1-362)
T2 construct: native VLPs; also the immunogen; also called VLP Ib2; BK Ib2
T2 chain: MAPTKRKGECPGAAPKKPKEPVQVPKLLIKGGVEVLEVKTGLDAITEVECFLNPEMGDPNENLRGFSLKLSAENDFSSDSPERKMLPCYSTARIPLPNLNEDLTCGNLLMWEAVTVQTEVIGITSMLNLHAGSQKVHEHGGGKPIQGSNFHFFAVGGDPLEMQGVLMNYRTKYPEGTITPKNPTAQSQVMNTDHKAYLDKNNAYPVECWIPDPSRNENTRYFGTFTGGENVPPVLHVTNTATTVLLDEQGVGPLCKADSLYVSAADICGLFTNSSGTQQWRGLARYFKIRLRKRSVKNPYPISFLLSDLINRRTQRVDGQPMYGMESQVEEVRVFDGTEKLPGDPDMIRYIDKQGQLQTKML

T3: virus-like particles (VLPs) of BK polyomavirus VP-1 protein, serotype II (BK virus (BKPyV), serotype II, UniProt P14996 1-362)
T3 construct: native VLPs; also called VLP II
T3 chain: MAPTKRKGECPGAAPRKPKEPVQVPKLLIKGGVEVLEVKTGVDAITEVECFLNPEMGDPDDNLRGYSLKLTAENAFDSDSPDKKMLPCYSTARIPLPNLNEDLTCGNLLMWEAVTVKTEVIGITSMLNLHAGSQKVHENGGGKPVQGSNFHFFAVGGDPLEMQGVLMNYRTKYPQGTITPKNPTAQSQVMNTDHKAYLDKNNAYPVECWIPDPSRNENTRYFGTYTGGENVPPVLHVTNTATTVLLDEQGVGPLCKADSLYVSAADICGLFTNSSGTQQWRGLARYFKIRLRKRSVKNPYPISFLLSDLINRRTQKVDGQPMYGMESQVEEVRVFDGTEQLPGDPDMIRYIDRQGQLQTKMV

T4: virus-like particles (VLPs) of BK polyomavirus VP-1 protein, serotype IV (BK virus (BKPyV), serotype IV, UniProt P14996 1-362)
T4 construct: native VLPs; also called VLP IV
T4 chain: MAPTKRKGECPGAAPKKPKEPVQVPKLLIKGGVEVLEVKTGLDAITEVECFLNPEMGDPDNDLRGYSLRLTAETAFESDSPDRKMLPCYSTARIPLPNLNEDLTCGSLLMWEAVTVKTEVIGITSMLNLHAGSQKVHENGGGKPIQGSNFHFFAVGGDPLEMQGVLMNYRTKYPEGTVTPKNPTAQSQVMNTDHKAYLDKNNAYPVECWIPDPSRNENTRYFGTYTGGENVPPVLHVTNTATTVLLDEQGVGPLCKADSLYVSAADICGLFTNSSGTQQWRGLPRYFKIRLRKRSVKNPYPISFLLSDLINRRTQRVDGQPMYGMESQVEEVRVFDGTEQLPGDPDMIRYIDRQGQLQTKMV


Assays:
[1] = molecular target: T1, virus-like particles (VLPs) of BK …; assay: ELISA on coated VLP; supernatant 1/20
Protocol: (§1) To do this, the VLPs produced were deposited at a concentration of 1 μg/mL in PBS and incubated overnight at +4° C. The wells were then blocked for 1 h at +37° C. with a PBS/FCS (phosphate-buffered saline/fetal calf serum) mixture. After dilution in a dilution buffer containing FCS, PBS and Tween® 20, the various hybridoma culture supernatants were added for 1 h at +37° C. The wells were washed four times in a row with Wash Buffer and a secondary anti-mouse antibody coupled to peroxidase was added to the 1:2000 dilution for 1 h at +37° C. The wells were washed four more times and the substrate (OPD (ortho phenylene diamine)+H₂O₂) was added for 30 min at room temperature. A stop solution (H₂SO₄ 4N) was then added and each well was read by measuring the absorbance at 492 nm with a spectrophotometer. The value obtained for the average of the control wells (PBS in the first step) is subtracted from the optical density values obtained for each well.

[2] = molecular target: T2, virus-like particles (VLPs) of BK …; assay: ELISA on coated VLP; supernatant 1/20
Protocol: as §1

[3] = molecular target: T3, virus-like particles (VLPs) of BK …; assay: ELISA on coated VLP; supernatant 1/20
Protocol: as §1

[4] = molecular target: T4, virus-like particles (VLPs) of BK …; assay: ELISA on coated VLP; supernatant 1/20
Protocol: as §1

[5] = molecular target: T1, virus-like particles (VLPs) of BK …; assay: ELISA on coated VLP; supernatant 1/40
Protocol: as §1

[6] = molecular target: T2, virus-like particles (VLPs) of BK …; assay: ELISA on coated VLP; supernatant 1/40
Protocol: as §1

[7] = molecular target: T3, virus-like particles (VLPs) of BK …; assay: ELISA on coated VLP; supernatant 1/40
Protocol: as §1

[8] = molecular target: T4, virus-like particles (VLPs) of BK …; assay: ELISA on coated VLP; supernatant 1/40
Protocol: as §1

[9] = molecular target: T3, virus-like particles (VLPs) of BK …; assay: ELISA on coated VLP; supernatant 1/160
Protocol: as §1

[10] = molecular target: T4, virus-like particles (VLPs) of BK …; assay: ELISA on coated VLP; supernatant 1/160
Protocol: as §1

[11] = molecular target: T2, virus-like particles (VLPs) of BK …; assay: ELISA on coated VLP; supernatant 1/5 120
Protocol: as §1

[12] = molecular target: T3, virus-like particles (VLPs) of BK …; assay: ELISA on coated VLP; supernatant 1/5 120
Protocol: as §1

[13] = molecular target: T4, virus-like particles (VLPs) of BK …; assay: ELISA on coated VLP; supernatant 1/5 120
Protocol: as §1

Binder	OD 492 nm [1]	OD 492 nm [2]	OD 492 nm [3]	OD 492 nm [4]	OD 492 nm [5]	OD 492 nm [6]	OD 492 nm [7]	OD 492 nm [8]	OD 492 nm [9]	OD 492 nm [10]	OD 492 nm [11]	OD 492 nm [12]	OD 492 nm [13]
monoclonal antibody ‘H6’ secreted by clone BK6A2H6 (antibody, V domains shown) VH: EVQLQQSGPELVKPGASVKISCKASGYSFTGYFMNWVKQSHGKSLEWIGRINPYNGDTFYNQKFKGKATLTVDKSSSTAHMELLSLTSEDSAVYYCGSYYYGDYFDYWGQGTTLTVSS VL: SIVMTQIPKFLLVSEGDRVTITCKASQSVSNDVAWYQQKSGQSPKLLIYYASNRYTGVPDRFTGSGYGTDFTFTISTVQAEDLAVYFCQQDYSSPLTFGAGTKLELKR	3.06 OD	0.82 OD	0.86 OD	3.21 OD	3.18 OD	0.67 OD	0.44 OD	3.38 OD	0.14 OD	3.14 OD	0.09 OD	0.05 OD	0.26 OD
monoclonal antibody ‘F6’ secreted by clone BK6A2F6 (antibody) heavy: EVQLQQSGPELVKPGASVKISCKASGYSFTGYFMNWVKQSHGKSLEWIGRINPYNGDTFYNQKFKGKATLTVDKSSSTAHMELLSLTSEDSAVYYCGSYYYGDYFDYWGQGTTLTVSSAKTTPPSVYPLAPGSAAQTNSMVTLGCLVKGYFPEPVTVTWNSGSLSSGVHTFPAVLQSDLYTLSSSVTVPSSTWPSETVTCNVAHPASSTKVDKKIVPRDCGCKPCICTVPEVSSVFIFPPKPKDVLTITLTPKVTCVVVDISKDDPEVQFSWFVDDVEVHTAQTQPREEQFNSTFRSVSELPIMHQDWLNGKEFKCRVNSAAFPAPIEKTISKTKGRPKAPQVYTIPPPKEQMAKDKVSLTCMITDFFPEDITVEWQWNGQPAENYKNTQPIMDTDGSYFVYSKLNVQKSNWEAGNTFTCSVLHEGLHNHHTEKSLSHSPGK light: […]	3.23 OD	1.22 OD	1.65 OD	3.16 OD	3.16 OD	1.03 OD	0.9 OD	3.19 OD	0.27 OD	3.46 OD	0.08 OD	0.07 OD	0.77 OD
